Measurements as given in paper PMC7096706.

Target: Trypanosoma cruzi farnesyl pyrophosphate synthase (Trypanosoma cruzi)
Test: dynamic light scattering; stock solution of tcFPPS thawed from -80°C directly before analysis; Zetasizer Ultra; distribution by volume analysis; monomer to dimer

Trypanosoma cruzi farnesyl pyrophosphate synthase (enzyme)
stoichiometry N: 2
